Assay results: article PMC11404848, “Stenotrophomonas maltophilia uses a c-di-GMP module to sense the mammalian body temperature during infection” (PLOS Pathogens, 2024)

Experiments:
[1] = molecular target: BtsD^ΔSP (Stenotrophomonas maltophilia CGMCC 1.1788); test: native gel or EMSA; purified BtsD^ΔSP in 2 mM HEPES, 20 mM K2HPO4, pH 7.9, 2 h at 28°C or 37°C, directly or after a gradual 30-min upshift from 0°C; native gel; fewer tetramers at 37°C
[2] = tested on: T1, BtsR (Stenotrophomonas maltophilia CGMCC 1.1788), ORF:ddddda88; test: EMSA
T1 sequence: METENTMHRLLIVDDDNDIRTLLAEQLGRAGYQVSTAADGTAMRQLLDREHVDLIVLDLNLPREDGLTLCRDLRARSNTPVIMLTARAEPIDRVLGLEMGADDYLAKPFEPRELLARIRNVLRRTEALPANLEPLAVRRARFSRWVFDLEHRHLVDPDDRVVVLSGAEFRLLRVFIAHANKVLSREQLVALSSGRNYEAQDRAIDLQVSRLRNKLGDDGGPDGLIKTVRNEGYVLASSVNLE

Row | Substance | stoichiometry N [1] | binding [2]
1 | BtsD^ΔSP (enzyme) | 4 | –
2 | CCGGTGAGGTTCGAAAAGCGGGTTCTGGTAGTGCCGGCCGCTGGCCGGCAACCCGACCTTCGCTGATTGCCGGCCAGCGGCCGGCACTACCATGCCGCTCTTGCTCCCTTTCACGCATCCCCCCCCCCCGCCCCTTGACCTCAACCAATGTTGAGGTGCGATAACAGTCTCCCCACGGCCAGCCCTCTGGCCTTCCCCACGGAGATTGCTTCA (double strand) [sod1-3 promoter probe] | – | binds
